This note sets out measurements from publication PMC5454382 (Nature Communications, 2017).

Experiment [1] has as its target T1, His-tagged LDHA (human, UniProt P00338 1-332). Kind of experiment: pull-down; GST pull-down: GST-tagged protein on glutathione-sepharose resin incubated with His-tagged protein, 4 °C, 3 h. The note with it: both partners purified.
Experiment [2] has as its target T1, His-tagged LDHA. Kind of experiment: pull-down; recombinant proteins from E. coli (Supplementary Fig. 3d,e); which partner was immobilised is not given. The note with it: both partners purified.

B1: GST-tagged hCINAP (enzyme, human, UniProt Q9Y3D8 1-172, looked up)
chain: MLLPNILLTGTPGVGKTTLGKELASKSGLKYINVGDLAREEQLYDGYDEEYDCPILDEDRVVDELDNQMREGGVIVDYHGCDFFPERWFHIVFVLRTDTNVLYERLETRGYNEKKLTDNIQCEIFQVLYEEATASYKEEIVHQLPSNKPEELENNVDQILKWIEQWIKDHNS
notes: hCINAP (adenylate kinase 6, AK6), human cDNA, wild type; Vector pGEX4T1 is named in the plasmids section; also called GST-hCINAP; glutathione S-transferase-tagged hCINAP; source: E. coli BL21(DE3), purified
On to B1, for which the binding result with His-tagged LDHA [1] is “binds”.

B2: GST-tagged hCINAP (H79G) (enzyme, human, UniProt Q9Y3D8 1-172, looked up)
chain: MLLPNILLTGTPGVGKTTLGKELASKSGLKYINVGDLAREEQLYDGYDEEYDCPILDEDRVVDELDNQMREGGVIVDYGGCDFFPERWFHIVFVLRTDTNVLYERLETRGYNEKKLTDNIQCEIFQVLYEEATASYKEEIVHQLPSNKPEELENNVDQILKWIEQWIKDHNS
notes: hCINAP (adenylate kinase 6, AK6), human cDNA, H79G mutant with impaired adenylate kinase activity; also called H79G mutant hCINAP; source: E. coli BL21(DE3), purified
For the molecule B2, the binding result in the experiment with His-tagged LDHA [2] is “binds”.
